Laboratory results from patent publication US20130274178A1 (PHILADELPHIA HEALTH AND EDUCATION CORPORATION D B A DREXEL …, published 2013).
Where no end group is shown, it is not given here. [ ]: non-standard residue; d: D form.

B1: UM24 (peptide)
peptide: XNNIPWS
modifications: not fully specified; residue 1 is citrulline (Cit); proline 5 is a 1,2,3-triazole-modified proline (Azp) 4-substituted with ferrocene
notes: Rink amide resin; also called CitNNIPWS
B2: HNG-156 (peptide)
peptide: RINNIPWSEAMM
modifications: proline 6 is a 1,2,3-triazole-modified proline (from cis-4-azidoproline, Azp) 4-substituted with ferrocene

Tests used:
[1] = target: HIV-1 gp120 on envelope-pseudotyped luciferase-reporter virus (strain not stated, Example 8) (HIV-1, strain ); test: cell-based or functional assay
HIV-1YU2 gp120 [2] = target: T1, HIV-1YU2 gp120 (HIV-1 strain YU-2, UniProt P35961 32-498, limits assumed); test: SPR competition; gp120 binding to CD4
T1 construct: domain: gp120
Procedure: (§1) All surface plasmon resonance experiments (SPR) were performed on a BIA3000 optical biosensor (Biocore, Inc., Uppsala, Sweden). […] The indicated analytes were passed over the surfaces at a flow rate of 50 μL/minute, with 2.5 minute association phase and 2.5 minute dissociation phase.

HIV-1YU2 gp120 [3] = target: T1, HIV-1YU2 gp120; test: ITC; peptide titrated into gp120, 25 °C, PBS pH 7.4
Procedure: The solutions contained within the calorimetric cells and injector syringes were prepared in PBS, pH 7.4 and thoroughly degassed to avoid bubble formation in the calorimetric cell. The heat evolved upon each injection of the peptide solution was obtained from the integral of the calorimetric signal. The heat associated with binding of a ligand to the protein in the cell was obtained by subtracting the heat of dilution from the heat of reaction. Heats of dilution due to mismatch between the syringe and cell solutions were negligible in all experiments.

HIV-1YU2 gp120 [4] = target: T1, HIV-1YU2 gp120; test: SPR direct binding, YU2 gp120 (Example 8); Example 8 determination
[5] = target: T2, soluble four domain CD4 (sCD4) (UniProt P01730 26-394, limits assumed); test: SPR, immobilized sCD4
T2 construct: domain: soluble four domain CD4; also called soluble CD4

HIV-1 92UG037-08 gp120 = target: T3, HIV-1 92UG037-08 gp120 (HIV-1 strain 92UG037-08); test: SPR direct binding; gp120 immobilized, peptide as analyte
T3 construct: domain: gp120; also called 92UG037-08 (A); 92Ugo37-08 gp120
Procedure: as §1
Data analysis was performed using BIAEvaluation® 4.0 software (Biacore Inc., NJ). The responses of a buffer injection and responses from the control surface to which the mAb 2B6R was immobilized, were subtracted to account for nonspecific binding. Experimental data were fitted to a simple 1:1 Langmuir binding model with a parameter included for mass transport. The average kinetic parameters (association [kₐ] and dissociation [kd] rates) generated from a minimum of four datasets were used to define equilibrium association (KA) and dissociation constants (KD).

[6] = target: HIV-1BaL envelope glycoprotein on pseudotyped virus (HIV-1 strain BaL); test: cell-based or functional assay
HIV-1YU2 gp120 [7] = target: T1, HIV-1YU2 gp120; test: SPR competition; gp120 binding to mAb 17b
Procedure: as §1

[8] = target: T2, soluble four domain CD4 (sCD4); test: SPR, sCD4 surface
HIV-1YU2 gp120 [9] = target: T1, HIV-1YU2 gp120; test: SPR competition; gp120 binding to mAb 17b; Example 8, Table 9
HIV-1YU2 gp120 [10] = target: T1, HIV-1YU2 gp120; test: SPR direct binding; YU-2 gp120 immobilized (~3500 RU), peptide as analyte
Procedure: Surface plasmon resonance (SPR) interaction analyses were performed on a Biacore® 3000 optical biosensor (GE). All experiments were carried out at 25° C. using standard PBS, pH 7.4, with 0.005% Surfactant P20.
Regeneration of the surface was achieved by a one 5-second pulse of 10 mM glycine, pH 1.5.

HIV-1YU2 gp120 [11] = target: T1, HIV-1YU2 gp120; test: SPR direct binding; YU-2 gp120 immobilized (~3500 RU), peptide as analyte; Example 9; SPR direct binding, peptide over immobilized gp120
HIV-1YU2 gp120 [12] = target: T1, HIV-1YU2 gp120; test: ELISA and SPR competition; gp120 binding to sCD4
HIV-1YU2 gp120 [13] = target: T1, HIV-1YU2 gp120; test: competition ELISA: sCD4 (0.1 µg/ml) with peptide on plate-coated YU-2 gp120; blocked ligand sCD4 (diamonds per the legend)
HIV-1YU2 gp120 [14] = target: T1, HIV-1YU2 gp120; test: competition ELISA: mAb 17b (0.1 µg/ml) with peptide on plate-coated YU-2 gp120; blocked ligand mAb 17b (the UM10 curve that is not diamonds)
HIV-1YU2 gp120 [15] = target: T1, HIV-1YU2 gp120; test: ITC; peptide titrated into gp120, 25 °C, PBS pH 7.4; ITC, 25° C. in PBS, pH 7.4
Procedure: Data was obtained as 25° C. in PBS, pH 7.4.
The solutions contained within the calorimetric cells and injector syringes were prepared in PBS, pH 7.4 and thoroughly degassed to avoid bubble formation in the calorimetric cell. The heat evolved upon each injection of the peptide solution was obtained from the integral of the calorimetric signal. The heat associated with binding of a ligand to the protein in the cell was obtained by subtracting the heat of dilution from the heat of reaction.

HIV-1YU2 gp120 [16] = target: T1, HIV-1YU2 gp120; test: competition ELISA: IgG b12 with UM17 on immobilized YU-2 gp120; blocked ligand b12

Row | Binder | IC50 (µM), pseudotype virus cell infection assay [1] [µM] | IC50 (HIV-1YU2 gp120 [2]) [µM] | IC50 (µM), pseudotyped HIV-1BaL infection of HOS.CD4.CCR5 cells [6] [µM] | IC50 (HIV-1YU2 gp120 [7]) [µM] | koff (HIV-1YU2 gp120 [10]) [s⁻¹] | kon (HIV-1YU2 gp120 [10]) [M⁻¹ s⁻¹] | also measured
1 | B1 | 4.9 | 0.081 | – | – | – | – | -TΔS (HIV-1YU2 gp120 [3]): 6.3 kcal/mol; ΔH (HIV-1YU2 gp120 [3]): -16.7 kcal/mol; Kd (HIV-1YU2 gp120 [4]): 0.021 µM
2 | B2 | – | – | – | – | – | – | binding result [5]: no binding (tested: 10 to 600 nM); Kd (HIV-1 92UG037-08 gp120): 0.0163 µM
3 | RINNI[Azp‑triazole‑ferrocene]WS-NH2 (Rink amide resin) [UM11] | 10.7 | – | 4 | 0.168 | – | – | –
4 | EINNI[Azp‑triazole‑ferrocene]WS-NH2 (Rink amide resin) [UM13] | 3.2 | 0.079 | 1.2 | – | – | – | –
5 | RINNI[Azp‑triazole‑ferrocene]W (also called RINNIPW) [UM12] | 12.5 | 0.124 | 6.8 | 0.218 | – | – | binding result [8]: no binding; -TΔS (HIV-1YU2 gp120 [3]): 9.9 kcal/mol; ΔH (HIV-1YU2 gp120 [3]): -19.7 kcal/mol
6 | NNI[Azp‑triazole‑ferrocene]WS-NH2 (Rink amide resin; also called NNIPWS) [UM31] | 10 | 5 | 36 | – | – | – | -TΔS (HIV-1YU2 gp120 [3]): 4.1 kcal/mol; ΔH (HIV-1YU2 gp120 [3]): -13.8 kcal/mol; IC50 (HIV-1YU2 gp120 [9]): 16 µM
7 | RNI[Azp‑triazole‑ferrocene]WS (also called RNIPWS) [UM32] | – | – | – | – | 0.0031 | 3300 | –
8 | INI[Azp‑triazole‑ferrocene]WS-NH2 (Rink amide resin; also called INIPWS) [UM35] | 17 | – | 17 | – | – | – | Kd (HIV-1YU2 gp120 [11]): > 10 µM
9 | ENI[Azp‑triazole‑ferrocene]WS (also called ENIPWS) [UM33] | – | – | – | – | 0.0018 | 1100 | –
10 | RINNI[Azp‑triazole‑ferrocene] (also called RINNIP) [UM16] | – | – | – | – | – | – | Kd (HIV-1YU2 gp120 [10]): > 10 µM
11 | [Azp‑triazole‑ferrocene]WSEAMM (also called PWSEAMM) [UM10] | – | – | 35 | – | – | – | binding result [8]: no binding; IC50 (HIV-1YU2 gp120 [12]): > 10 µM; IC50 (read off the curve) (HIV-1YU2 gp120 [13]): ~2 µM; IC50 (read off the curve) (HIV-1YU2 gp120 [14]): ~0.2 µM
12 | NI[Azp‑triazole‑ferrocene]WS (also called NIPWS) [UM41] | – | – | – | – | – | – | -TΔS (HIV-1YU2 gp120 [15]): -1.6 kcal/mol; ΔH (HIV-1YU2 gp120 [15]): -6.1 kcal/mol
13 | NNI[Azp‑triazole‑ferrocene]W (also called NNIPW) [UM17] | – | – | – | – | – | – | -TΔS (HIV-1YU2 gp120 [3]): 3.3 kcal/mol; ΔH (HIV-1YU2 gp120 [3]): -13.2 kcal/mol; IC50 (read off the curve) (HIV-1YU2 gp120 [16]): ~3 µM
14 | INNI[Azp‑triazole‑ferrocene]WS-NH2 (Rink amide resin; also called INNIPWS) [UM21] | 7.4 | 0.086 | 7.4 | – | – | – | –
15 | RNNI[Azp‑triazole‑ferrocene]WS (also called RNNIPWS) [UM22] | – | 0.123 | 11 | 0.181 | 0.0068 | 510000 | –
16 | FNNI[Azp‑triazole‑ferrocene]WS-NH2 (Rink amide resin; also called FNNIPWS) [UM28] | 11 | 0.105 | 13 | 0.174 | 0.0043 | 380000 | –
17 | KNNI[Azp‑triazole‑ferrocene]WS (also called KNNIPWS) [UM27] | – | 0.128 | 23 | 0.197 | 0.0088 | 590000 | –
18 | ENNI[Azp‑triazole‑ferrocene]WS-NH2 (Rink amide resin; also called ENNIPWS) [UM23] | 6.6 | 0.088 | 5.8 | 0.165 | 0.0034 | 130000 | –
19 | INNI[Azp‑triazole‑ferrocene]W-NH2 (Rink amide resin; also called INNIPW) [UM15] | 7.2 | – | 6.9 | – | – | – | -TΔS (HIV-1YU2 gp120 [3]): 6.6 kcal/mol; ΔH (HIV-1YU2 gp120 [3]): -16.6 kcal/mol
